Test results reported in the supplement of paper PMC9170038.

Tested on: MS2 coat protein
Assay: apparent KD of MS2 coat protein; designed switch direction (-1 OFF switch, 1 ON switch): 1; higher = weaker reporter binding
Summary of the method: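 Normalised cluster fluorescence was curve-fitted, and each design's median over clusters is its apparent KD. Before this, SNAP-549-labelled MS2 coat protein was titrated from 0.7 or 1.5 nM, doubling to 3 µM, over RNA switches transcribed on Illumina chips by stalled E. coli RNA polymerase. Titrations had no input, 200 uM small-molecule ligand, or an oligonucleotide input, and steps lasted 0.8–1.5 h (lowest) to 10–20 min (highest).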

[1] = Eterna round: R95, input ligand: FMN 200 uM
[2] = Eterna round: R95, input ligand: microRNA oligo, concentration not stated
[3] = Eterna round: R95, input ligand: none
[4] = input ligand: microRNA oligo, concentration not stated

Sequence	apparent KD of MS2 coat protein [1] [nM]	apparent KD of MS2 coat protein [2] [nM]	apparent KD of MS2 coat protein [3] [nM]	apparent KD of MS2 coat protein (input ligand: FMN 200 uM) [nM]	apparent KD of MS2 coat protein [4] [nM]	apparent KD of MS2 coat protein (input ligand: none) [nM]
AUCCUACAUGAGGAUCACCCAUGUGACGCCUCAAUAGGAUAUCGGGCCCAAAAUCGGGCACGAGAAGGAUUGAAGC [Aveso] (puzzle: Same State 1)	85.2	172	163			
AUGAAGAAUUAAGGAUAUUGAUUACAUAUGUUUAACAUGAGGAUCACCCAUGUGGGUUGCGGUAUCGAGAAGGUAAAAUAAUAG [Mat - same State NG 2 - JL mod - D85] (Eterna round: R96, puzzle: Same State NG 2)				187	123	158
AUGAUCUACCGAAAGGUAGAUCGGCUUGUACAUGAGGAUCACCCAUGUAUGUACAAGCUUUUUGCUCGUCUUAUAAA [Modxample - Jieux - Sensor for bsa-mir-208a] (Eterna round: R96, puzzle: Sensor for hsa-mir-208a)				279	16.6	282
AUGCCAAAAUGAGGAUAUGGAGCCUUAUUGGCUCCAGAAGGCGUGACAUGAGGAUCACCCAUGUGGCAGUGGUCUAAUGACCAC [Eli NG1ss - 44] (Eterna round: R96, puzzle: Same State NG 1)				21.9	53.3	77
AUGCCAAAUGGAGGAUAUGGAGCCUUAUUGGCUCCAGAAGGUCGGACAUGAGGAUCACCCAUGUGGCAGUGGUCUAAUGACCAC [Eli NG1ss - 42] (Eterna round: R96, puzzle: Same State NG 1)				242	293	463
AUGGUCAAGUGUGAGGAUAUCCAUGCUCCCACAUGAGGAUCACCCAUGUCUUAAAGGGCGUAAAGGGAGAAGGUACGAACGCCAC [Edatxein] (Eterna round: R96, puzzle: Same State 2)				73.1	49.2	80.6
AUUAAACAUGAGGAUCACCCAUGUCAACAAAGUCGAGGAUAUGGGCAAAUAAUAUAAUAACCAGAAGGCGAAUAAU [salish99_ss1_r3_081] (puzzle: Same State 1)	36.7	28.1	97			
AUUAAACAUGAGGAUCACCCAUGUCAACAAAGUCGAGGAUAUGGGCAUAUUAUCUUAUUACCAGAAGGCGAAUAAU [salish99_ss1_r3_087] (puzzle: Same State 1)		326				
AUUAACAUGAGGAUCACCCAUGUUACGAGCUUAGCUCGGACACAGGAUAUCCGGUCCUAGAGACCGGAGAAGGGUGCCUUAUAA [Zara MOD4] (Eterna round: R96, puzzle: Same State NG 3)				742	123	265
AUUAACUUGAGAGGAUAUGUAGAGGAUCACCCUACAGAAGGCUCGUUAGAGAGGAUAUGUAGAGGAUCACCCUACAGAAGGCUC [pwkr ssNG DX.9] (Eterna round: R96, puzzle: Same State NG 1)				95.1	82.4	88.7
AUUAAUAAUCGAGGAUAUCACGUCGUUUAGACGUGAGAAGGCGAUCAUAACAUGAGGAUCACCCAUGUAUUACAUGAAGUUAAU [SSNG1/4-B3] (Eterna round: R96, puzzle: Same State NG 1)				37.8	26.3	39.3
AUUAGACAUGAGGAUCACCCAUGUAGGCAGUCAUGAGGAUAUGGACAAGGUGCUCAAGGUCCAGAAGGCAUACGCC [Maxeus] (Eterna round: R96, puzzle: Same State 1)				12.2	28.3	28
AUUAUAUAUGCAGGAUAUGAUUAACAUGAGGAUCACCCAUGUGGUGUUGUGAGUAAGGAGAGUGAUCAGAAGGGCAUUUUUUUU [JMF's solution 63] (Eterna round: R96, puzzle: Same State NG 2)				852	163	353
AUUAUUAAUGCAGGAUAUGAUUAACAUGAGGAUCACCCAUGUGGUGUUGUGAGUAAGGAGAGUGAUCAGAAGGGCAAUUUUUUU [JMF's solution 7] (Eterna round: R96, puzzle: Same State NG 2)				382	633	340
AUUAUUUAUGCAGGAUAUGAUUAACAUGAGGAUCACCCAUGUGGUGUUGUGAGUAAGGAGAGUGAUCAGAAGGGCAAUUUUUUU [JMF's solution 42] (Eterna round: R96, puzzle: Same State NG 2)				709	387	375
AUUAUUUAUGCAGGAUAUGAUUAACAUGAGGAUCACCCAUGUGGUGUUGUGAGUAAGGAGAGUGAUCAGAAGGGCAUUUAUUUU [JMF's solution 47] (Eterna round: R96, puzzle: Same State NG 2)				926	559	669
AUUGCUAGCACAGGAUAUCAUGCGAAAAUUGCGUGAGAAGGGUGGACGCUGUCAUUCACGGAAGACAUGAGGAUCACCCAUGUC [SameState NG1 #77] (Eterna round: R96, puzzle: Same State NG 1)				44.6	56.2	88.1
AUUGCUAUCACAGGAUAUCAUGCGAAAAUUGCGUGAGAAGGGUGGACUCUGUCAUUGCCGGAGGACAUGAGGAUCACCCAUGUC [SameState NG1 #100] (Eterna round: R96, puzzle: Same State NG 1)				96.2	27	60.9
AUUGCUUACGCAGGAUAUGAUGCGAAAAUUGCGUCAGAAGGGUGAAAAGAAUCGUUGCAAGAAGACAUGAGGAUCACCCAUGUC [SameState NG1 #94] (Eterna round: R96, puzzle: Same State NG 1)				29.9	28.2	59.8
AUUGCUUACGCAGGAUAUGAUGCGGAAACUGCGUCAGAAGGGUGAAAAGAAUCGUUGCAAGAAGACAUGAGGAUCACCCAUGUC [SameState NG1 #95] (Eterna round: R96, puzzle: Same State NG 1)				20	23	30.5
AUUUAACAAGCUUUUUGCUCGUCUUAUAAACAUGAGGAUCACCCAUGUAAUAGCGUGAGAGUAAAUAAAUAAAUAAU [JMF 82] (puzzle: Sensor for hsa-mir-208a)	17.1	42.7	14.2			
AUUUAACAAGCUUUUUGCUCGUCUUAUAAACAUGAGGAUCACCCAUGUAAUAGCGUGAGAGUAAAUAAAUUAAUAAU [JMF 97] (puzzle: Sensor for hsa-mir-208a)	14.4	46.1	12.2			
AUUUAACAAGCUUUUUGCUCGUCUUAUAAACAUGAGGAUCACCCAUGUAAUAGCGUGAGAGUAAAUAAUUAAAUAAU [JMF 89] (puzzle: Sensor for hsa-mir-208a)	13.3	50.7	9.91			
AUUUAACAAGCUUUUUGCUCGUCUUAUAAACAUGAGGAUCACCCAUGUAAUAGCGUGAGAGUAAAUAUAUAAAUAAU [JMF 85] (puzzle: Sensor for hsa-mir-208a)	13.8	42.2	11.9			
AUUUAACAAGCUUUUUGCUCGUCUUAUAAACAUGAGGAUCACCCAUGUAAUAGCGUGAGAGUAAAUUUUUAAAUAAU [JMF 95] (puzzle: Sensor for hsa-mir-208a)	14.5	38.9	14.8			
AUUUAACAAGCUUUUUGCUCGUCUUAUAAACAUGAGGAUCACCCAUGUAAUAGCGUGAGAGUAAUUAAUUUAAUUAU [JMF 100] (puzzle: Sensor for hsa-mir-208a)	15.5	32.7	14.1			
AUUUAAUUUACUCAGGAUAUGCAUAGAUAAACAUGAGGAUCACCCAUGUAAUUAUUUUUUAAUAAGUAGAAGGGAGAUUUUUAUU [splinter_arm[switch]] (puzzle: Same State 2)	54.9	65.4	147			
AUUUUUAAUGCAGGAUAUGAUCAACAUGAGGAUCACCCAUGUGGUGUUGUGAGUAAGGAGAGUGAUCAGAAGGGCAUCUUUUCA [SS-NG2-LRO03] (Eterna round: R96, puzzle: Same State NG 2)				1310	372	758
